# Results: the supplement of paper PMC10724198
# ± gives the standard deviation of the averaged measurements.
# Test system: Saccharomyces cerevisiae
# Experiment: protein stability index of tFT-peptide fusion (C-terminal peptide) (PSI (0-1 scale)); higher = more stable (slower turnover)
# Details: genetic background: wild type; temperature: 30 C
# 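Note: PSI is a weighted mean of sequencing reads over stability bins, variants kept only with over 10 reads, mCherry proximal and sfGFP distal, peptide attached via GGGS linker.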
row,Sequence,protein stability index
1,TSFLHLFVAAII,0.513 ± 0.024
2,TSLPPSPPPSPT,0.476 ± 0.025
3,TSPYTSFAHTSL,0.69 ± 0.022
4,VAFGVASGWCWF,0.488 ± 0.02
5,VAFILVVCKGIG,0.2024 ± 0.00042
6,VAWWVCIRSCCG,0.486 ± 0.028
7,VCCSSVSLLVFA,0.374 ± 0.023
8,VCGYGFAVPCYT,0.437 ± 0.02
9,VCILLVAWCLMG,0.217 ± 0.0097
10,VCLLGWGVRLVS,0.505 ± 0.079
11,VCMHIVLLAASP,0.193 ± 0.002
12,VCSRWFFVFVVR,0.388 ± 0.011
13,VCVFFRLCIVWY,0.174 ± 0.036
14,VDGVSFFVVLLC,0.311 ± 0.036
15,VDSTCLLITLLA,0.41 ± 0.0047
16,VEIKSKRMLVVI,0.45639 ± 0.00022
17,VEQLLYIKATNV,0.408 ± 0.019
18,VFDFVFHLRFVV,0.1155 ± 0.00063
19,VFFCLFVLFLSG,0.423 ± 0.18
20,VFFGLYLVTFTS,0.409 ± 0.042

row,Sequence,protein stability index
1,VFFHFFVCWRFV,0.121 ± 0.019
2,VFFLLSVYMVMM,0.307 ± 0.065
3,VFFTSLPPLLRA,0.458 ± 0.0096
4,VFIVVEFRLSLY,0.231 ± 0.073
5,VFKLGWVLCVLL,0.208 ± 0.024
6,VFLACSMTGGDA,0.331 ± 0.022
7,VFLDCCLRVFVD,0.312 ± 0.011
8,VFLLFFFGLFVF,0.415 ± 0.041
9,VFLPVMVFFTFS,0.4 ± 0.013
10,VFRLLLFFVFVF,0.37 ± 0.0056
11,VGAVGVCILFVW,0.35 ± 0.038
12,VGFYGRWVCVAC,0.29 ± 0.04
13,VGGSRGARLGVG,0.386 ± 0.014
14,VGRANLSVIRKV,0.436 ± 0.013
15,VGSSSGRLLYLC,0.481 ± 0.0082
16,VGTIVLTCIEVN,0.279 ± 0.017
17,VGVVLWVWGLGD,0.446 ± 0.035
18,VGVVVVGDVLVW,0.424 ± 0.046
19,VIQNKKKNKITS,0.372 ± 0.027
20,VIYYVRVGLVLS,0.203 ± 0.025

row,Sequence,protein stability index
1,VLARGFHCMYFC,0.484 ± 0.048
2,VLGPRFCFVCHA,0.3455 ± 0.0025
3,VLLSSSLVFLIS,0.462 ± 0.044
4,VLVCYFCRYISH,0.485 ± 0.0091
5,VLVTFFIRSGVS,0.411 ± 0.045
6,VMFCRFPLRFGC,0.475 ± 0.026
7,VPTRRRGNRRPA,0.788 ± 0.03
8,VQVLVAIMDGRM,0.354 ± 0.011
9,VRFLSLNVLFFC,0.38 ± 0.033
10,VRGWLAYLRWII,0.274 ± 0.018
11,VSFGELGVEVVG,0.451 ± 0.022
12,VSGEWSFLVRVQ,0.39 ± 0.15
13,VSISLCVLCPVF,0.349 ± 0.018
14,VSLSWFSCCFVG,0.386 ± 0.0073
15,VSVFSLFLFLRV,0.421 ± 0.0044
16,VSVVLKTQRVVC,0.4809 ± 0.0012
17,VTFWISLVYVLV,0.218 ± 0.011
18,VTVWVFVFLRGL,0.374 ± 0.052
19,VVACCVVFWVLP,0.437 ± 0.086
20,VVCLCEYRLHIF,0.0917 ± 0.047

# Test system: Saccharomyces cerevisiae
# Experiment: as above
# Details: genetic background: cdc34-1; temperature: 37 C
# Method: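 MPS profiling in S. cerevisiae of the tFT-X12 degron library: putative degron peptides plus stable controls, 12 aa, fused to the C-terminus of a sfGFP-mCherry timer. Cells are FACS-sorted into 8 mCherry/sfGFP bins and deep-sequenced. PSI runs from 0 (unstable) to 1 (stable). Backgrounds are wild type, das1Δ and doa10Δ at 30 °C, and wild type, das1Δ, cdc34-1 and cdc53-1 at 37 °C; 2-3 technical replicates each.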
row,Sequence,protein stability index
1,TSFLHLFVAAII,0.588 ± 0.027
2,TSLPPSPPPSPT,0.682 ± 0.016
3,TSPYTSFAHTSL,0.694 ± 0.029
4,VAFGVASGWCWF,0.748 ± 0.048
5,VAFILVVCKGIG,0.187 ± 0.029
6,VAWWVCIRSCCG,0.51 ± 0.023
7,VCCSSVSLLVFA,0.362 ± 0.017
8,VCGYGFAVPCYT,0.489 ± 0.013
9,VCILLVAWCLMG,0.168 ± 0.023
10,VCLLGWGVRLVS,0.667 ± 0.031
11,VCMHIVLLAASP,0.244 ± 0.02
12,VCSRWFFVFVVR,0.402 ± 0.033
13,VCVFFRLCIVWY,0.061 ± 0.0092
14,VDGVSFFVVLLC,0.406 ± 0.087
15,VDSTCLLITLLA,0.534 ± 0.1
16,VEIKSKRMLVVI,0.5115 ± 0.0011
17,VEQLLYIKATNV,0.689 ± 0.012
18,VFDFVFHLRFVV,0.336 ± 0.032
19,VFFCLFVLFLSG,0.302 ± 0.0038
20,VFFGLYLVTFTS,0.219 ± 0.036

row,Sequence,protein stability index
1,VFFHFFVCWRFV,0.184 ± 0.068
2,VFFLLSVYMVMM,0.145 ± 0.018
3,VFFTSLPPLLRA,0.433 ± 0.015
4,VFIVVEFRLSLY,0.122 ± 0.019
5,VFKLGWVLCVLL,0.286 ± 0.027
6,VFLACSMTGGDA,0.256 ± 0.029
7,VFLDCCLRVFVD,0.252 ± 0.016
8,VFLLFFFGLFVF,0.348 ± 0.02
9,VFLPVMVFFTFS,0.337 ± 0.013
10,VFRLLLFFVFVF,0.266 ± 0.017
11,VGAVGVCILFVW,0.203 ± 0.0086
12,VGFYGRWVCVAC,0.366 ± 0.053
13,VGGSRGARLGVG,0.352 ± 0.012
14,VGRANLSVIRKV,0.632 ± 0.016
15,VGSSSGRLLYLC,0.595 ± 0.007
16,VGTIVLTCIEVN,0.0595 ± 0.022
17,VGVVLWVWGLGD,0.533 ± 0.026
18,VGVVVVGDVLVW,0.286 ± 0.071
19,VIQNKKKNKITS,0.599 ± 0.048
20,VIYYVRVGLVLS,0.0324 ± 0.0007

row,Sequence,protein stability index
1,VLARGFHCMYFC,0.68 ± 0.025
2,VLGPRFCFVCHA,0.555 ± 0.067
3,VLLSSSLVFLIS,0.597 ± 0.022
4,VLVCYFCRYISH,0.479 ± 0.059
5,VLVTFFIRSGVS,0.456 ± 0.0087
6,VMFCRFPLRFGC,0.662 ± 0.031
7,VPTRRRGNRRPA,0.673 ± 0.022
8,VQVLVAIMDGRM,0.346 ± 0.023
9,VRFLSLNVLFFC,0.54 ± 0.032
10,VRGWLAYLRWII,0.58 ± 0.03
11,VSFGELGVEVVG,0.709 ± 0.022
12,VSGEWSFLVRVQ,0.548 ± 0.026
13,VSISLCVLCPVF,0.268 ± 0.01
14,VSLSWFSCCFVG,0.497 ± 0.066
15,VSVFSLFLFLRV,0.25 ± 0.047
16,VSVVLKTQRVVC,0.595 ± 0.026
17,VTFWISLVYVLV,0.192 ± 0.015
18,VTVWVFVFLRGL,0.319 ± 0.0069
19,VVACCVVFWVLP,0.232 ± 0.017
20,VVCLCEYRLHIF,0.203 ± 0.029
